Experimental data as given in patent US20130266605A1, “PEPTIDE INHIBITORS OF CD40L SIGNALING AND USES THEREFOR” (PHYLOGICA LIMITED, priority 2010, published 2013).
Read-outs that look alike come from different tables or passages of the source. Residues, ends and D or L forms follow the SMILES beside them. No end group written: not given here. PEG = not defined here

Columns and labels:
CD40L = target: T1, CD40L (Homo sapiens, UniProt P29965); assay: Octet Red label-free association/dissociation analysis; type: binding
T1 sequence (P29965 113-261 limits assumed): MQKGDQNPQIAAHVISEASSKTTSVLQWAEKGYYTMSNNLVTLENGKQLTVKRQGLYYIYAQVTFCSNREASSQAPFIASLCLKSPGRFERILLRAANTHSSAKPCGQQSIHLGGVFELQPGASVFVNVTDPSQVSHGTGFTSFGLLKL
Experimental: Label-free analyses of the associations and dissociations of base peptides and serine derivatives of base peptides with the CD40L target protein were performed using the Octet Red system (ForteBio, Inc., USA) according to the manufacturer's instructions. These analyses provide kinetic constants of CD40L binding activity, especially the association rate constant (Ka) and dissociation rate constant ([…]) of binding, i.e., measures of the “on” and “off” rates of the peptides relative to soluble CD40L.

CD40L-CD40 interaction = target: T2, CD40L-CD40 interaction (Homo sapiens, UniProt P29965); assay: Chemiluminescent proximity assay (Alphascreen); type: binding
T2 sequence (P29965 113-261 limits assumed): T1 sequence (P29965 113-261 limits assumed)
Experimental: In one example, the Alphascreen assay (PerkinElmer) was employed according to the manufacturer's instructions.
Homodimers and heterodimers were also assayed by chemiluminescent proximity assay for their ability to inhibit CD40L-CD40 interaction.

CD40 ligand [1] = target: T3, CD40 ligand (UniProt P29965 108-261, limits assumed); assay: Octet Red label-free (BLI)
T3 construct: Used immobilised, soluble, or biotinylated on streptavidin beads; also called CD154; soluble CD40L
T3 sequence (looked up): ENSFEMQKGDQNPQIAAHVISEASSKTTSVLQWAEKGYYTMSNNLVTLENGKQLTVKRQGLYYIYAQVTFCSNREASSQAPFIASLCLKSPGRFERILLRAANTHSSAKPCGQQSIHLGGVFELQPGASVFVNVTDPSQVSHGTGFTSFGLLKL

CD40 ligand [2] = target: T3, CD40 ligand; assay: Alphascreen, unmodified peptide, inhibition of CD40L/CD40-Fc
CD40 ligand [3] = target: T3, CD40 ligand; assay: Alphascreen, PEGylated peptide, inhibition of CD40L/CD40-Fc
CD40 ligand [4] = target: T3, CD40 ligand; assay: cell-based or functional assay
[5] = Cys-Ser derivative peptides, read-out: KD value
[6] = base peptides, equilibrium dissociation constant, read-out: KD

CC[C@H](C)[C@H](NC(=O)[C@H](C)NC(=O)[C@@H](NC(=O)[C@H](CCSC)NC(=O)[C@H](CCC(=O)O)NC(=O)[C@H](CO)NC(=O)[C@@H](N)CC(C)C)[C@@H](C)CC)C(=O)N[C@@H](Cc1ccc(O)cc1)C(=O)N[C@H](C(=O)N[C@@H](Cc1ccccc1)C(=O)N[C@@H](CC(C)C)C(=O)N[C@@H](Cc1c[nH]c2ccccc12)C(=O)N[C@@H](CCCCN)C(=O)N[C@@H](CCCCN)C(=O)N[C@H](C(=O)N[C@@H](Cc1ccccc1)C(=O)N[C@@H](CC(C)C)C(=O)O)C(C)C)C(C)C [CD40L M7_217s] (H-LSEMIAIYVFLWKKVFL-OH; N-terminus and C-terminus assumed)
Kd (CD40L; [5]): 100 nM

CC(C)C[C@H](NC(=O)[C@H](Cc1ccc(O)cc1)NC(=O)[C@H](CC(=O)O)NC(=O)[C@H](CCCNC(=N)N)NC(=O)[C@H](CCCNC(=N)N)NC(=O)[C@H](Cc1ccccc1)NC(=O)[C@H](CO)NC(=O)[C@H](CO)NC(=O)[C@H](Cc1ccc(O)cc1)NC(=O)[C@H](Cc1ccccc1)NC(=O)[C@H](CCCNC(=N)N)NC(=O)[C@H](Cc1ccccc1)NC(=O)[C@H](CC(C)C)NC(=O)[C@H](Cc1ccccc1)NC(=O)[C@H](Cc1ccccc1)NC(=O)[C@H](CC(C)C)NC(=O)[C@H](CC(N)=O)NC(=O)[C@H](Cc1ccc(O)cc1)NC(=O)[C@H](CCCNC(=N)N)NC(=O)[C@@H]1CCCN1C(=O)[C@@H]1CCCN1)C(=O)N[C@@H](Cc1ccc(O)cc1)C(=O)N[C@@H](Cc1ccccc1)C(=O)O [CD40L M1_9s] (H-PPRYNLFFLFRFYSSFRRDYLYF-OH)
Kd (CD40L; [5]): 300 nM

PFTWRPTIFWIIQLIVYMRHFGGGGSRSELLRENICRYVSLFDHPLQRNTPLDELRFVIFDTETSGFDLVKDRILSIR [CD40L D1_0014]
Kd (CD40L): 48 nM
higher affinity for CD40L than the base monomeric peptide (CD40L; heterodimer versus N-terminal monomer, from Table 2 data): 6 fold

CC[C@H](C)[C@H](NC(=O)[C@H](CC(C)C)NC(=O)[C@H](Cc1c[nH]c2ccccc12)NC(=O)[C@H](CCSC)NC(=O)[C@H](CCC(=O)O)NC(=O)CNC(=O)[C@H](CCC(=O)O)NC(=O)[C@H](CC(C)C)NC(=O)[C@H](CO)NC(=O)[C@H](CCC(=O)O)NC(=O)[C@@H](NC(=O)[C@@H](N)CCCNC(=N)N)[C@@H](C)CC)C(=O)N[C@@H](CC(N)=O)C(=O)N1CCC[C@H]1C(=O)N[C@@H](Cc1ccccc1)C(=O)N[C@@H](CC(N)=O)C(=O)NCC(=O)N[C@@H](CCC(=O)O)C(=O)N[C@H](C(=O)N[C@@H](CC(C)C)C(=O)N[C@@H](CC(=O)O)C(=O)N[C@@H](CCC(=O)O)C(=O)N[C@@H](Cc1c[nH]cn1)C(=O)N[C@H](C(=O)N[C@@H](CC(C)C)C(=O)N[C@@H](CCC(=O)O)C(=O)N[C@H](C(=O)N[C@@H](Cc1c[nH]c2ccccc12)C(=O)N[C@@H](CC(C)C)C(=O)N[C@@H](CCCCN)C(=O)O)C(C)C)[C@@H](C)O)[C@@H](C)O [CD40L M8_748] (H-RIESLEGEMWLINPFNGETLDEHTLEVWLK-OH)
Kd (CD40L): 5 nM
EC50 (CD40L-CD40 interaction): 184 nM

LDLFGDFNGLPEGADRTEFYQHEGHWQNRMILGDSLQVMASLAEREGLRGKVQCIYFDPPYGIKFN [CD40L M9_763]
Kd (CD40L; [6]): 27 nM

CC[C@H](C)[C@H](NC(=O)[C@H](CC(N)=O)NC(=O)[C@H](Cc1ccccc1)NC(=O)[C@@H]1CCCN1C(=O)[C@@H](NC(=O)[C@H](CC(N)=O)NC(=O)[C@@H](NC(=O)CNC(=O)[C@H](Cc1ccccc1)NC(=O)[C@H](CC(C)C)NC(=O)[C@@H](NC(=O)[C@H](Cc1ccccc1)NC(=O)[C@H](CO)NC(=O)[C@@H](N)Cc1c[nH]cn1)C(C)C)C(C)C)C(C)C)C(=O)N[C@H](C(=O)N[C@@H](CC(=O)O)C(=O)N[C@@H](Cc1ccccc1)C(=O)N[C@@H](CCC(N)=O)C(=O)N[C@@H](CCSC)C(=O)N[C@@H](CCCNC(=N)N)C(=O)N[C@H](C(=O)N[C@@H](CCCCN)C(=O)N[C@@H](CO)C(=O)O)C(C)C)[C@@H](C)CC [CD40L M1_42s] (H-HSFVLFGVNVPFNIIDFQMRVKS-OH)
Kd (CD40L; [5]): 100 nM

CC[C@H](C)[C@H](NC(=O)[C@H](CC(N)=O)NC(=O)[C@H](Cc1ccccc1)NC(=O)[C@@H]1CCCN1C(=O)[C@@H](NC(=O)[C@H](CC(N)=O)NC(=O)[C@@H](NC(=O)CNC(=O)[C@H](Cc1ccccc1)NC(=O)[C@H](CC(C)C)NC(=O)[C@@H](NC(=O)[C@H](Cc1ccccc1)NC(=O)[C@H](CO)NC(=O)[C@@H](N)Cc1c[nH]cn1)C(C)C)C(C)C)C(C)C)C(=O)N[C@H](C(=O)N[C@@H](CC(=O)O)C(=O)N[C@@H](Cc1ccccc1)C(=O)N[C@@H](CCC(N)=O)C(=O)N[C@@H](CCSC)C(=O)N[C@@H](CCCNC(=N)N)C(=O)N[C@H](C(=O)N[C@@H](CCCCN)C(=O)N[C@@H](CS)C(=O)O)C(C)C)[C@@H](C)CC [CD40L M1_42] (H-HSFVLFGVNVPFNIIDFQMRVKC-OH; N-terminus and C-terminus assumed)
Kd (CD40L; [6]): 30 nM

B1: CD40L M8_721 (peptide)
peptide: LWRLNEWNYSDAELLSLIEWCIDH
notes: Base peptide
Kd (CD40 ligand [1]): 7 nM
EC50 (CD40 ligand [2]): 524 nM

B2: PEGylated CD40L M1_82s (peptide)
peptide: {PEG}-SIQYHWRYSRFKYYFQLIWVYYSHV
modifications: reading uncertain
EC50 (CD40 ligand [3]): 120 nM

B3: PEGylated CD40L M1_9s (peptide)
peptide: {PEG}-PPRYNLFFLFRFYSSFRRDYLYF
modifications: reading uncertain
notes: also called PEGylated M1_9S
EC50 PEGylated peptide, inhibition of CD40L-induced CD86 expression on primary B-cells (CD40 ligand [4]): 180 nM
EC50 (CD40 ligand [3]): 48 nM

B4: CD40L M8_720 (peptide)
peptide: RLPETRKAQAALATKYGIYGFCYYHYWFNGRRILESPVDAMLESGEPDFPFMLCWANENWT
notes: Base peptide
Kd (CD40 ligand [1]): 4 nM
EC50 (CD40 ligand [2]): 238 nM

B5: LAEHAVWSLKcFPDWEWYNINIFGTDDPNHFWVEcDGHGKILFPGYPEGYYENHFLHSFELED (peptide)
peptide: LAEHAVWSLKCFPDWEWYNINIFGTDDPNHFWVECDGHGKILFPGYPEGYYENHFLHSFELED
modifications: not fully specified
Kd (CD40L; [6]): 8 nM
EC50 (CD40L-CD40 interaction; monomeric non-PEGylated (unmodified) base peptide; 50% reduction in control emission at 520-620 nm; read-out: EC50nmodified) CD40L/CD40-Fc/BAF617): 197 nM

B6: PEGylated CD40L M1_50s (peptide)
peptide: {PEG}-PRWVRNRFYSLFVPSGVQRGGIHLWFSNWVR
modifications: reading uncertain
notes: also called PEGylated M1_50S
EC50 PEGylated peptide, inhibition of CD40L-induced CD86 expression on primary B-cells (CD40 ligand [4]): 30 nM
EC50 (CD40 ligand [3]): 1500 nM

B7: PEGylated CD40L M1_30s (peptide)
peptide: {PEG}-DAAGREFFQIAGLFSFRHHWWQA
modifications: reading uncertain
notes: also called PEGylated M1_30S
EC50 PEGylated peptide, inhibition of CD40L-induced CD86 expression on primary B-cells (CD40 ligand [4]): > 2000 nM
EC50 (CD40 ligand [3]): 32 nM

B8: PEGylated CD40L M1_18s (peptide)
peptide: {PEG}-LPFVPYRSHVLKYGWFFPVQWSIFAVLPFQYLHRSR
modifications: reading uncertain
notes: also called PEGylated M1-18S
EC50 PEGylated peptide, inhibition of CD40L-induced CD86 expression on primary B-cells (CD40 ligand [4]): 90 nM
EC50 (CD40 ligand [3]): 3300 nM

B9: CD40L M7_217 (peptide)
peptide: LCEMIAIYVFLWKKVFL
EC50 unmodified peptide, inhibition of CD40L-induced CD86 expression on primary B-cells (CD40 ligand [4]): 2500 nM

B10: PEGylated CD40L M1_6s (peptide)
peptide: {PEG}-HPFSIKNVFSIWNFFSVY
modifications: reading uncertain
notes: also called PEGylated M1_6S
EC50 PEGylated peptide, inhibition of CD40L-induced CD86 expression on primary B-cells (CD40 ligand [4]): 1.5 nM
EC50 (CD40 ligand [3]): 48 nM

B11: CD40L M7_206 (peptide)
peptide: PFTWRPTIFWIIQLIVYMRHF
notes: Base peptide; also called CD40L M1-206
Kd (CD40 ligand [1]): 280 nM
EC50 (CD40 ligand [2]): 190 nM

B12: PEGylated CD40L M2_159s (peptide)
peptide: {PEG}-LLYVKVISFFSMLVQYNNFQTYK
modifications: reading uncertain
EC50 (CD40 ligand [3]): 120 nM

B13: PEGylated CD40L M1_42s (peptide)
peptide: {PEG}-HSFVLFGVNVPFNIIDFQMRVKS
modifications: reading uncertain
notes: also called PEGylated M1_42S
EC50 PEGylated peptide, inhibition of CD40L-induced CD86 expression on primary B-cells (CD40 ligand [4]): 5000 nM
EC50 (CD40 ligand [3]): 112 nM
